Reference: PMC7502549 (Journal of molecular biology, 2020)

Target: the molecule itself
Test: AUC

B1: Neurotrimin (NTM) extracellular domain, a.a. 36-311, with C-terminal linker and hexahistidine tag (domain or fragment, human, UniProt Q9P121 36-311, looked up)
chain: ATFPKAMDNVTVRQGESATLRCTIDNRVTRVAWLNRSTILYAGNDKWCLDPRVVLLSNTQTQYSIEIQNVDVYDEGPYTCSVQTDNHPKTSRVHLIVQVSPKIVEISSDISINEGNNISLTCIATGRPEPTVTWRHISPKAVGFVSEDEYLEIQGITREQSGDYECSASNDVAAPVVRRVKVTVNYPPYISEAKGTGVPVGQKGTLQCEASAVPSAEFQWYKDDKRLIEGKKGVKVENRPFLSKLIFFNVSEHDYGNYTCVASNKLGHTNASIMLF
modifications: N-linked glycosylation (extensive)
- stoichiometry N: 2
